“And” between values parts separate entries of the source, which are not always exact repeats. Equal values may be shown once.
B1: anti-STAT3 antibody ST1A5 (antibody, V domains shown)
VH: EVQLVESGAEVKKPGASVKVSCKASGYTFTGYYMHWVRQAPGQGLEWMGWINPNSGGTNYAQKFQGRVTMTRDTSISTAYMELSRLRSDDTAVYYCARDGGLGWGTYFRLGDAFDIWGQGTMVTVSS
VL: QSVLTQPPSVSKGLRQTATLTCTGNSNNVGNEGAAWLQQHQGHPPKLLSYRNFNRPSGISERFSASRSGNTASLTITGLQPEDEADYYCSAWDSSLSAWVFGGGTKLTVL
notes: Human antibody; it was detected with anti-human IgG
B2: anti-STAT3 antibody ST3G12 (unmodified) (antibody, V domains shown)
VH: QVQLVQSGAEVKKPGASVKVSCKASGYTFTSYYMHWVRQAPGQGLEWMGIINPSGGSTSYAQKFQGRVTMTRDTSTSTVYMELSSLRSEDTAVYYCARSDYVHSFDIWGQGTMVTVSS
VL: QPVLTQPPSASALLGASIKLTCTLSSEHSTYTVEWYQQRPGRSPQYIMNVKSDGSYNKGDGIPDRFMGSSSGADRYLTFSNLQSDDEAEYHCGESHRIDGQVGVVFGGGTKLTVL
notes: also called naked anti-STAT3 ST3G12 antibody
B3: compound 901a (ST3G12 conjugated to the phosphorothioate oligonucleotide, non-fluorescein version) (antibody, V domains shown)
VH: QVQLVQSGAEVKKPGASVKVSCKASGYTFTSYYMHWVRQAPGQGLEWMGIINPSGGSTSYAQKFQGRVTMTRDTSTSTVYMELSSLRSEDTAVYYCARSDYVHSFDIWGQGTMVTVSS
VL: QPVLTQPPSASALLGASIKLTCTLSSEHSTYTVEWYQQRPGRSPQYIMNVKSDGSYNKGDGIPDRFMGSSSGADRYLTFSNLQSDDEAEYHCGESHRIDGQVGVVFGGGTKLTVL
modifications: phosphorothioate oligonucleotide joined to the antibody through a linker; residue(s) and chain of attachment not stated
notes: also called ST3G12-PS

How the values were obtained:
[1] = molecular target: T1, STAT3 in fixed or permeabilized human tumour cells (U251 glioblastoma); MDA-MB-468 / MDA-MB-435 breast cancer … (human, UniProt P40763 2-770); assay: flow cytometry on fixed, methanol-permeabilized U251 cells; PE anti-human IgG; MFI (FL-2)
T1 construct: whole, on cells; STAT3 is intracellular and the cells were permeabilized; also called cellular antigens; cellular targets
T1 sequence (P40763 2-770): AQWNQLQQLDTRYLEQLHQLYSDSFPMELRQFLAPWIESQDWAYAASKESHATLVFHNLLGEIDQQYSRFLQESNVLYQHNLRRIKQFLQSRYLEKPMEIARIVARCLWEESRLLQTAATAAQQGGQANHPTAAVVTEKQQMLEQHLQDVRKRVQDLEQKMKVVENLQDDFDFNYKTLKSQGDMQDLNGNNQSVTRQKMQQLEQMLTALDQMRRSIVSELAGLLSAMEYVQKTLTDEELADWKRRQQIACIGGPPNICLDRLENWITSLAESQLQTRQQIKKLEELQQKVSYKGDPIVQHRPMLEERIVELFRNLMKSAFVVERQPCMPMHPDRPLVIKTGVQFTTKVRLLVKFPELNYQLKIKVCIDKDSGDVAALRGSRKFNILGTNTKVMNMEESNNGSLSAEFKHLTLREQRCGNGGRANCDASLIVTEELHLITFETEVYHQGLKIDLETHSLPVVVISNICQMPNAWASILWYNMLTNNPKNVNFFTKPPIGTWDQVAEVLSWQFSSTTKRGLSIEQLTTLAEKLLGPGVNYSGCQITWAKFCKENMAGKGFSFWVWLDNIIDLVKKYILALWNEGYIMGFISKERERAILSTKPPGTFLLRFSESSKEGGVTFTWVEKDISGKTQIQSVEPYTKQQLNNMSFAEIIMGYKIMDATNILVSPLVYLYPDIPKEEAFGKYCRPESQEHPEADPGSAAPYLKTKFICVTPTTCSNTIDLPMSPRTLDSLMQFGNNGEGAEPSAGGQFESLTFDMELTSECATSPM
Procedure: (§1) Next, the binding of the candidate anti-STAT3 antibodies to cellular targets was tested in cell binding assays using MDA-MB-435 breast cancer cells and U251 cells. The cells were seeded overnight in a 96 well plate, then fixed with PFA and permeabilized with methanol. Cells were incubated with serial dilutions of the anti-STAT3 antibody candidates ST1A5, ST3G12 and ST5G12 for one hour and 30 minutes. Following incubation, the cells were washed and incubated for 30 minutes with phycoerythrin (PE) conjugated anti-human IgG. Fluorescence was measured on an Intellicyte high-throughput flow cytometry analyzer. […] Bevacizumab (Avastin), a monoclonal antibody that inhibits vascular endothelial growth factor A (VEGF-A) was used as a negative control. As shown in FIG. 8A and FIG. 8B, the anti-STAT3 antibodies ST5G12 and ST3G12 both bound STAT3, with ST5G12 being an especially strong binder.

[2] = molecular target: T1, STAT3 in fixed or permeabilized human …; assay: flow cytometry on fixed, methanol-permeabilized MDA-MB-468 cells (sheet title; legend paragraph 19 says MDA-MB-435); PE anti-human IgG; MFI (FL-2)
Procedure: as §1

GST protein = GST protein (UniProt P08515 1-218 = GST); assay: SPR (Biacore T200), antibody captured on anti-human Fc
Sequence of GST protein (P08515 whole entry): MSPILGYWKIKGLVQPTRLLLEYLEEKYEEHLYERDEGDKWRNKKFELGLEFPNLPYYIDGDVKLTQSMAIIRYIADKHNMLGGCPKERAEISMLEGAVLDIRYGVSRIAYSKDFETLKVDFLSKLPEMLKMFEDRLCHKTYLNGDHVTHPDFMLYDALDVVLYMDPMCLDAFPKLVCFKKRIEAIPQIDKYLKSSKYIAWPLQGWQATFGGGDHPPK

[3] = molecular target: T1, STAT3 in fixed or permeabilized human …; assay: flow cytometry (HTFC) on permeabilized U251 cells; PE anti-human IgG; MFI
Procedure: After 45 minutes at room temperature, cells were washed twice and incubated with phycoerythrin (PE) conjugated-anti-human IgG for 20 minutes at room temperature in the dark. Cells were then washed and analyzed by high throughput flow cytometry (HTFC). The results are shown in FIG. 9 for assessment of antibody binding to cellular antigens in U251 cells.

[4] = molecular target: T2, recombinant human STAT3 proteins (human, UniProt P40763 1-770, limits assumed); assay: ELISA on recombinant human STAT3 (sheet title 'STAT 3 binding'); Abs 450
T2 construct: It may be the same STAT3-GST as in the Biacore assay
T2 sequence (P40763 whole entry): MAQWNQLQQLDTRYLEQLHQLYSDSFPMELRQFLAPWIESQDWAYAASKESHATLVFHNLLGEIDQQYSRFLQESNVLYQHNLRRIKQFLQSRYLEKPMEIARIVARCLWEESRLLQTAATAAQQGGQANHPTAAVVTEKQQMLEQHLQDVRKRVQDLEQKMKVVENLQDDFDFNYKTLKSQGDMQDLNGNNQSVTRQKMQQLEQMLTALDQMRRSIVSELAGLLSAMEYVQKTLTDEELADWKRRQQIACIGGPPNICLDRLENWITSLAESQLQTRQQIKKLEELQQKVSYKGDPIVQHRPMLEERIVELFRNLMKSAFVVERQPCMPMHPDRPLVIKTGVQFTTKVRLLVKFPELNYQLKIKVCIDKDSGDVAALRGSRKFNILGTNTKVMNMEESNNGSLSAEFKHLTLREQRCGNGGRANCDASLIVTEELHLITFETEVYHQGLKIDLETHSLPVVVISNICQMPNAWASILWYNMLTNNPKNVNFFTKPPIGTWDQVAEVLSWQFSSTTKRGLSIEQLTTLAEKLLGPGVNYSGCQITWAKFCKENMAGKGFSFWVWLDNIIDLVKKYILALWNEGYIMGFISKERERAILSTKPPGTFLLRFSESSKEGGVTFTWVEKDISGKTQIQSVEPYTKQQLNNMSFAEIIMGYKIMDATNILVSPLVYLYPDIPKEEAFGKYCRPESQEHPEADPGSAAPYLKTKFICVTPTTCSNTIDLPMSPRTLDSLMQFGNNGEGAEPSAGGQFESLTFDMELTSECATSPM

[5] = molecular target: T3, Recombinant human STAT3-GST (human, UniProt P40763 1-770); assay: SPR (Biacore T200), antibody captured on anti-human Fc, STAT3-GST as analyte, 1:1 model
T3 construct: The order of STAT3 and GST follows the printed name 'STAT3-GST' only; not shown: GST (glutathione S-transferase) tag
T3 sequence (P40763 whole entry): as above
Procedure: Anti-human Fc antibody (GE, BR-1008-39) was immobilized on a CMS sensor chip to approximately 1000 RU using standard NHS/EDC coupling methodology. Antibodies (approximately 10 ug/ml) were captured for 60 seconds at a flow rate of 10 ul/min Recombinant human STAT3-GST was serially diluted 2-fold into running buffer (HBS-EP+, starting from […]). All measurements were conducted at a flow rate of 30 ul/min Surfaces were regenerated with 3M MgCl₂ (from human antibody kit) for 60 seconds. A 1:1 (Langmuir) binding model was used to fit the data.

[6] = molecular target: T2, recombinant human STAT3 proteins; assay: STAT3 binding ELISA, Hu-IgG-FAB detection (sheet title; legend paragraph 22 says 'to human IgG'); OD 450 nm; the EC50 column has no unit, x axis in ng/ml
[7] = molecular target: T2, recombinant human STAT3 proteins; assay: 'Binding ELISA, Hu-IgO Detection' (sheet title, 01052015), Superblock as blocking buffer; coated antigen not named, taken as STAT3 by analogy with the title of FIG. 10; OD 450 nm; the EC50 row has no unit, x axis in ng/ml
[8] = molecular target: T2, recombinant human STAT3 proteins; assay: binding ELISA with Superblock as blocking buffer; coated antigen not named on the sheet (legend paragraph 30 says 'to human IgG'), taken as STAT3 by analogy with the title of FIG. 10; OD 450 nm; the EC50 row has no unit, x axis in ng/ml
[9] = molecular target: T2, recombinant human STAT3 proteins; assay: 'Binding ELISA, Hu-IgO Detection' (sheet title), Superblock as blocking buffer; second column of the table taken as the curve labelled 901a; coated antigen not named, taken as STAT3; the EC50 row has no unit, x axis in ng/ml
[10] = molecular target: T2, recombinant human STAT3 proteins; assay: binding ELISA with Superblock as blocking buffer; second column of the table taken as the curve labelled 901a (only two curves, two columns); coated antigen not named on the sheet, taken as STAT3; the EC50 row has no unit, x axis in ng/ml

Binder	EC50 (read off the curve) [1] [nM]	EC50 (read off the curve) [2] [nM]	binding result (GST protein)	EC50 (read off the curve) [3] [nM]	EC50 (read off the curve) [4]	Kd [5] [nM]	koff [5] [s⁻¹]	kon [5] [M⁻¹ s⁻¹]	EC50 [6] [µg/mL]	EC50 [7] [µg/mL]	EC50 [8] [µg/mL]	EC50 [9] [µg/mL]	EC50 [10] [µg/mL]
B1	~8	~6											
B2	~4		no binding	~9	~0.06 µg/mL	5.39	0.000322	59700	0.155	0.0257	0.122		
B3			no binding		~0.06 µg/mL and ~0.1 µg/mL	0.222	0.00011	494000	0.153			0.0643	0.186

Reference: patent US20170107289A1 (SORRENTO THERAPEUTICS, published 2017)
